Test results published in paper PMC6127106 (2018).

B1: human fibrinogen (ligand)
chain 1: GPRVVERHQSACKDSDWPFCSDEDWNYKCPSGCRMKGLIDEVNQDFTNRINKLKNSLFEYQKNNKDSHSLTTNIMEILRGDFSSANNRDNTYNRVSEDLRSRIEVLKRKVIEKVQHIQLLQKNVRAQLVDMKRLEVDIDIKIRSCRGSCSRALAREVDLKDYEDQQKQLEQVIAKDLLPSRDRQHLPLIKMKPVPDLVPGNFKSQLQKVPPEWKALTDMPQMRMELERPGGNEITRGGSTSYGTGSETESPRNPSSAGSWNSGSSGPGSTGNRNPGSSGTGGTATWKPGSSGPGSTGSWNSGSSGTGSTGNQNPGSPRPGSTGTWNPGSSERGSAGHWTSESSVSGSTGQWHSESGSFRPDSPGSGNARPNNPDWGTFEEVSGNVSPGTRREYHTEKLVTSKGDKELRTGKEKVTSGSTTTTRRSCSKTVTKTVIGPDGHKEVTKEVVTSEDGSDCPEAMDLGTLSGIGTLDGFRHRHPDEAAFFDTASTGKTFPGFFSPMLGEFVSETESRGSESGIFTNTKESSSHHPGIAEFPSRGKSSSYSKQFTSSTSYNRGDSTFESKSYKMADEAGSEADHEGTHSTKRGHAKSRPVRDCDDVLQTHPSGTQSGIFNIKLPGSSKIFSVYCDQETSLGGWLLIQQRMDGSLNFNRTWQDYKRGFGSLNDEGEGEFWLGNDYLHLLTQRGSVLRVELEDWAGNEAYAEYHFRVGSEAEGYALQVSSYEGTAGDALIEGSVEEGAEYTSHNNMQFSTFDRDADQWEENCAEVYGGGWWYNNCQAANLNGIYYPGGSYDPRNNSPYEIENGVVWVSFRGADYSLRAVRMKIRPLVTQ
chain 2: GHRPLDKKREEAPSLRPAPPPISGGGYRARPAKAAATQKKVERKAPDAGGCLHADPDLGVLCPTGCQLQEALLQQERPIRNSVDELNNNVEAVSQTSSSSFQYMYLLKDLWQKRQKQVKDNENVVNEYSSELEKHQLYIDETVNSNIPTNLRVLRSILENLRSKIQKLESDVSAQMEYCRTPCTVSCNIPVVSGKECEEIIRKGGETSEMYLIQPDSSVKPYRVYCDMNTENGGWTVIQNRQDGSVDFGRKWDPYKQGFGNVATNTDGKNYCGLPGEYWLGNDKISQLTRMGPTELLIEMEDWKGDKVKAHYGGFTVQNEANKYQISVNKYRGTAGNALMDGASQLMGENRTMTIHNGMFFSTYDRDNDGWLTSDPRKQCSKEDGGGWWYNRCHAANPNGRYYWGGQYTWDMAKHGTDDGVVWMNWKGSWYSMRKMSMKIRPFFPQQ
chain 3: YVATRDNCCILDERFGSYCPTTCGIADFLSTYQTKVDKDLQSLEDILHQVENKTSEVKQLIKAIQLTYNPDESSKPNMIDAATLKSRKMLEEIMKYEASILTHDSSIRYLQEIYNSNNQKIVNLKEKVAQLEAQCQEPCKDTVQIHDITGKDCQDIANKGAKQSGLYFIKPLKANQQFLVYCEIDGSGNGWTVFQKRLDGSVDFKKNWIQYKEGFGHLSPTGTTEFWLGNEKIHLISTQSAIPYALRVELEDWNGRTSTADYAMFKVGPEADKYRLTYAYFAGGDAGDAFDGFDFGDDPSDKFFTSHNGMQFSTWDNDNDKFEGNCAEQDGSGWWMNKCHAGHLNGVYYQGGTYSKASTPNGYDNGIIWATWKTRWYSMKKTTMKIIPFNRLTIGEGQQHHLGGAKQVRPEHPAETEYDSLYPEDDL
B2: C-terminal biotinylated recombinant human apoA-IV (apoA-IV-GGC) (ligand)
chain: EVSADQVATVMWDYFSQLSNNAKEAVEHLQKSELTQQLNALFQDKLGEVNTYAGDLQKKLVPFATELHERLAKDSEKLKEEIGKELEELRARLLPHANEVSQKIGDNLRELQQRLEPYADQLRTQVSTQAEQLRRQLTPYAQRMERVLRENADSLQASLRPHADELKAKIDQNVEELKGRLTPYADEFKVKIDQTVEELRRSLAPYAQDTQEKLNHQLEGLTFQMKKNAEELKARISASAEELRQRLAPLAEDVRGNLRGNTEGLQKSLAELGGHLDQQVEEFRRRVEPYGENFNKALVQQMEQLRQKLGPHAGDVEGHLSFLEKDLRDKVNSFFSTFKEKESQDKTLSLPELEQQQEQQQEQQQEQVQMLAPLESGGC
modifications: maleimide-PEG2-biotin on the C-terminal cysteine of the GlyGlyCys linker

Target: purified human platelet αIIbβ3 integrin (human, UniProt P05106 27-788)
Assay: 2D off-rate, biomembrane force probe adhesion frequency

| koff [s⁻¹] | Binder |
| --- | --- |
| 8.41 | B1 |
| 7.85 | B2 |
